For this assay, the target named is HIV-1 Gag polyprotein (p6 region) (HIV-1 (NL4-3)).

With “HIV-1 Vpr L22E (from UniProt P12520 1-96) (natural protein)”, the % Vpr incorporation into virions relative to WT Vpr (western blot densitometry, Vpr band normalised to p24 CA) was 20 % of WT.

Source of the values: article PMC3174981.
